Literature values as cited in PMC10035860.

Molecular target: growth hormone receptor (Homo sapiens) (UniProt P10912)
UniProt P10912, sequence (P10912 19-638): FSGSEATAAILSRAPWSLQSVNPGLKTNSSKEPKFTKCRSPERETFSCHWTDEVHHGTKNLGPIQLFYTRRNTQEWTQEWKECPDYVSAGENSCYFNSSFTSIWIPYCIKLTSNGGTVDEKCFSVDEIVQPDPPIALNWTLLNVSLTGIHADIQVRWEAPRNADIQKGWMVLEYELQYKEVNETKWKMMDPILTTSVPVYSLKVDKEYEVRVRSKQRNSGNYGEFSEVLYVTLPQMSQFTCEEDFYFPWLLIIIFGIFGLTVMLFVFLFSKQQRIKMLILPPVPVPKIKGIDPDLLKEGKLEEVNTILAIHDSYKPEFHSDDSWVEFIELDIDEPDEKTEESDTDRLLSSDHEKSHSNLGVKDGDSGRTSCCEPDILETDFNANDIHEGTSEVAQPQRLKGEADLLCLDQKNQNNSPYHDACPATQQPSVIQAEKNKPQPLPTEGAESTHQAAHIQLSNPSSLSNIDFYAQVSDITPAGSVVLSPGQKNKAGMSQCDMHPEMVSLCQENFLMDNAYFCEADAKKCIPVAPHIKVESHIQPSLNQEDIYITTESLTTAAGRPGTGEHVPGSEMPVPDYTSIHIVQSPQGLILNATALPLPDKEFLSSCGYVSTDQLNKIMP

growth hormone, sequence (P01241 27-217): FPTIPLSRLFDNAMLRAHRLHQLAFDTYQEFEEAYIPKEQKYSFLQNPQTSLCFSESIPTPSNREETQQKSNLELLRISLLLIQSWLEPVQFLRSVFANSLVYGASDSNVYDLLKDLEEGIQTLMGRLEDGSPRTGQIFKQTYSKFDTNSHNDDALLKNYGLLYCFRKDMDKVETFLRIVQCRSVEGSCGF

For growth hormone (from UniProt P01241), the Kd is listed as 0.3 nM.
